We go through 7 molecules from article PMC10465003, “The AAA-ATPase Yta4/ATAD1 interacts with the mitochondrial divisome to inhibit mitochondrial fission” (PLOS Biology, 2023).

T1: GST-Mdv1(a.a. 1–249) (Schizosaccharomyces pombe (strain 972 / …, UniProt Q9P7I3))
T1 chain: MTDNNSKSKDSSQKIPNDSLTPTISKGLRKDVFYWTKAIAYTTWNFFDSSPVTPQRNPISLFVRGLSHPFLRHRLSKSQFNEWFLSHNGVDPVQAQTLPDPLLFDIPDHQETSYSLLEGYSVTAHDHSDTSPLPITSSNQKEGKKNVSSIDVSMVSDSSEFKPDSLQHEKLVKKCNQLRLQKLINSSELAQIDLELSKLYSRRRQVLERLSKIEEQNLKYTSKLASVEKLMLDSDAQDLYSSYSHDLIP

T2: GST-Mdv1(a.a. 1–249) (Schizosaccharomyces pombe, UniProt Q9P7I3 1-249)
T2 construct: Mdv1, S. pombe, residues 1-249, the N-terminus; also called GST-Mdv1(NT); not shown: GST, N-terminal, kept
T2 sequence (looked up): T1 chain

T3: Dnm1(G380D) (Schizosaccharomyces pombe, UniProt Q09748 1-781, G380D)
T3 construct: Dnm1, fission yeast dynamin-related GTPase, with G380D (corresponds to G385D of S. cerevisiae Dnm1); Removal of His-sumo is stated for His-sumo-Dnm1 only; also called assembly-defective mutant of Dnm1; source: E. coli Rosseta, expressed as His-sumo-Dnm1(G380D), purified (Ni-NTA)
T3 sequence (looked up): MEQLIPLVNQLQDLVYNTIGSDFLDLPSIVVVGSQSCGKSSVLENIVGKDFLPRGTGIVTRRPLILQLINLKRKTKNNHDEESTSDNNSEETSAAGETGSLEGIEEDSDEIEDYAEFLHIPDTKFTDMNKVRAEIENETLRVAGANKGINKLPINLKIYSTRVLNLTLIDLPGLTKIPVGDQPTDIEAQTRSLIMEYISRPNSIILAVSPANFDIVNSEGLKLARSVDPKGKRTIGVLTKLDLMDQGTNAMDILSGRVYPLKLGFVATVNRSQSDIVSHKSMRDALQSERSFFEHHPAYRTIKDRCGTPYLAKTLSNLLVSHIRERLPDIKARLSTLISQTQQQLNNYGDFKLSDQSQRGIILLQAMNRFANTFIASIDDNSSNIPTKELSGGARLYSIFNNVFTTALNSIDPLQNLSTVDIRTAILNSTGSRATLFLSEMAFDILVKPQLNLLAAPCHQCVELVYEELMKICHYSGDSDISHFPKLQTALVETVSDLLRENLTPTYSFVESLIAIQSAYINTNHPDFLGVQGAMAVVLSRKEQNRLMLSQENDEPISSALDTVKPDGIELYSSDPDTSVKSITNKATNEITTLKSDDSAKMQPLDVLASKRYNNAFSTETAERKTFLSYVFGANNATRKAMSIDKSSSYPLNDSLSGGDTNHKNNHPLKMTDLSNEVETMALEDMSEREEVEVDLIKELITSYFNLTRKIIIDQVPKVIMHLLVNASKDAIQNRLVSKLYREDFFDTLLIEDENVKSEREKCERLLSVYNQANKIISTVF

B1: His-Fis1(1–128) (domain or fragment, Schizosaccharomyces pombe, UniProt Q9USZ8 1-128, looked up)
chain: MTEKHTLRLADPSAIDSIISVDEFLQIKEQYDAEQPLITLQTKFNLAWALVRSDSTQHVQQGLSLFCSIYKDSPERRLECLYYIALSHYKLKQYEESRRYLNMLLSKDPNSPEALKLKNRLYDAVTKE
notes: also called His-Fis1(∆TM); Fis1(∆TM); source: E. coli BL21, purified (Ni-NTA, size-exclusion chromatography); not shown: His tag, N-terminal, kept
B2: Dnm1 (enzyme, Schizosaccharomyces pombe, UniProt Q09748 1-781, looked up)
chain: T3 sequence (looked up) with D380G
notes: Dnm1, fission yeast dynamin-related GTPase; also called Dnm1(WT); recombinant Dnm1; source: E. coli Rosseta, purified (Ni-NTA, sumo protease, size-exclusion chromatography); not shown: His-sumo, N-terminal, cleaved
B3: Dnm1 (Schizosaccharomyces pombe 972h-; G380D) (protein)
chain: T3 sequence (looked up)
notes: Dnm1 expressed as His-sumo-Dnm1 in E. coli Rosetta; His-sumo tag removed by sumo protease; Ni-NTA and SEC; forms heterogeneous oligomers
B4: GST-Mdv1(319–651) (domain or fragment, Schizosaccharomyces pombe, UniProt Q9P7I3 319-651, looked up)
chain: YIVGNLVKQFQAHSEYITSLDFSHPFGTLATASTDKTVKVWDMAGVVYLGSLKGHSDYVSCLAIQDSFIATGSMDTTVRLWNLDNDVLHKDNPVEESLNSPPDQPVDNATNVLTSHTAPVTALALSSDDVLITGADDKTVRQWDIVTGRCIQTLDFVWAETHDTSTSQILVSDTYKQEPFIRALDCLDAAVASGTVDGLIRIWDLRIGLPVRSFIGHTAPISSLQFDSNHLYSGSYDNSVRIWDLRSGSPINIIPMEKKVNSLRLYQGRLAVASDEPNVRIFDTVSNRNWICSIPSHSDSIAAEPNSVPTSVQYKDRFLVDGKSDGSVSVFSA
notes: also called GST-Mdv1(WD); Mdv1(WD); source: E. coli BL21, purified (Glutathione Sepharose 4B resins); not shown: GST, N-terminal, kept

Data set [1] deals with B2.
Data set [2] has as its target GST-Mdv1(319–651) (Schizosaccharomyces pombe) (UniProt Q9P7I3). Description: pull-down; competitive binding: GST-Mdv1(a.a. 319–651) on glutathione resins incubated with Dnm1 or Dnm1(G380D), with or without His-Yta4(a.a 33–355); band intensities quantified.
The target of data set [3] is Hcp1-Yta4(a.a. 35–355) (not stated | Schizosaccharomyces pombe). Description: SEC + cross-linking; Superdex 200 Increase 10/300 GL in hypersaline buffer (500 mM NaCl, 500 mM KCl, 1 mM ATP, pH 7.5); EGS 4 mM, 300 ng/μL protein, 30 min at room temperature, SDS-PAGE with silver staining.
The target of data set [4] is Hcp1-Msp1(a.a. 36–362) (not stated | budding yeast (Saccharomyces cerevisiae)) (UniProt P28737). The data set is described as above.
For data set [5], the target named is T1, GST-Mdv1(a.a. 1–249). Briefly: GST pull-down.
Data set [6] concerns the target T2, GST-Mdv1(a.a. 1–249). Briefly: pull-down; competitive binding: GST-Mdv1(a.a. 1–249) on glutathione resins incubated with His-Fis1(a.a. 1–128), with or without His-Yta4(a.a 33–355) (Mdv1 to Yta4 1:1, 1:5, 1:10). As to conditions: both partners purified.
Substrate in data set [7]: Nc1nc2c(ncn2[C@@H]2O[C@H](COP(=O)(O)OP(=O)(O)OP(=O)(O)O)[C@@H](O)[C@H]2O)c(=O)[nH]1
Description: malachite green phosphate release, Michaelis-Menten fit. Format: biochemical, Schizosaccharomyces pombe. The note with it: pH 7.5, 37°C.

Data set [8] concerns the molecule itself. Briefly: co-sedimentation; velocity sedimentation: 2 μM Dnm1 with 0, 5, 50 or 100 μM GMP-PCP, with or without 40 μM His-Yta4; 20 min at 37°C, 10,000 g 15 min at 4°C; supernatant and pellet on SDS-PAGE.
A further data set addresses T3, Dnm1(G380D). Description: pull-down; competitive binding: GST-Mdv1(a.a. 319–651) on glutathione resins incubated with Dnm1 or Dnm1(G380D), with or without His-Yta4(a.a 33–355); band intensities quantified. The note with it: both partners purified.
The target in data set [9] is B2. Described as above. The note with it: both partners purified.

Residue numbers refer to the chain shown, from its start. Names may count otherwise.

Take “His-Yta4(a.a. 33–355) (domain or fragment)”: the Km for GTP of the GTPase activity of 0.5 μM Dnm1 (colorimetric assay, 37°C) with 5 μM and 10 μM His-Yta4(∆TM), fold increase over Dnm1 alone; Vmax not significantly affected with Dnm1 [1] amounted to 6 fold. In data set [2], this molecule had a Dnm1 left on GST-Mdv1(WD) with His-Yta4(∆TM), percent of the level without it of 40%.

Consider Hcp1-Yta4(a.a. 35–355), for which, in [3], the stoichiometry N came to 6.

With “Hcp1-Msp1(a.a. 36–362) (from UniProt P28737 36-362)”, the stoichiometry N in data set [4] was determined as 6.

For B1, the binding result with GST-Mdv1(a.a. 1–249) [5] and with GST-Mdv1(a.a. 1–249) [6] was “binds” throughout.

Turning to B2, the Km in data set [7] (0.5 μM Dnm1 alone, Mg2+) is 193.80 µM. The binding result in [8] is listed as “binds”.

For B3, the Km in [7] (assembly-defective mutant, 0.5 μM, without Yta4, Mg2+) is 85.00 µM.

For the molecule B4, the binding result with Dnm1(G380D) and with Dnm1 [9] was “binds” throughout.

For orientation: stoichiometry N means a count of units in the complex or per binding partner. The term Km denotes the concentration of substrate that gives half-maximal velocity.
